A protein production outcome set (Wang et al. 2014)

Assay: label from the status in PepcDB records
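Note: failed if final PepcDB status was selected cloned or expressed and not failed if soluble or beyond.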

| Sequence | protein production |
| --- | --- |
| MNSLSSLAAVLLMAGRSTRMGQPKALLPLGGMPLCRHAAQTLVEAGYGEVWAVLPPGETGDAVRAALQGLPLRWVTNPQPAQGLLSSFQAAGEALWAESAAPAVVFTLADMPLVRRDTHQALGTVFGAEQPAAIITRYGEVAAPPTLLRRDLLPRLHEFPPSDHGPRTLLRELGRELKKIDRPAAELLDIDTPEAWAQAQQLFAEVTPGAQDGP | failed |
| MNSNANNTPIAIGISQVFPCSYLDGQQEQLLVIQEETLDPILFERLLAIGFRRSGSAIYKPRCPRCSACQPIRVPIQEFVPSKRQKRTLAHNRDLTWRITTEHTETQYALYEKYIRERHFDGPMYPPSKAQYEQFLFCHWLPPTFIEVYDDNRLVAVAVTDTLPNSFSAIYSYFDPDEERRSLGVLLILLQCRLAKLQGKAFLYLGYQIDANRKMSYKRLYRPYQILTHQGWEYSQVCLEHHHHHH | failed |
| MNSNVNDRKPRLVFFQWDHQPNANAAGYLLLHMQQQVKCLSTHFDVVVINRDCDYAEICDRYEPDLTLFESGYRSHGSRRIKITNTNTHIAVPKLGLHNADAWCDRRAGFLSDMEQWGIEAYFAIATMTPEYMPAVKENLFVWPNFIDPDVYHDYGQQKVIPAMLTGQAYGLYPWRQTVFPMIRDRYPCLVSPQHAYESKLASQLLSGEAYARALNASLVVPTCGTMGGEVVRKHFEIPGAKACLVTERTPAVEAAGFVDMENCVFVDGHNVVERLDYLFAHPDEIRHITTAGYSLIHSRHTLSHRPQIYQWFMLSKGLQFGEKIIQSGPFGDLTKVQRISRQESVHIVGEASDRALLKQGDLLLEQGRVEEAKQCYARCLDYVSYLPEAKFRLAICALQQGDADRAYGLMVGLVKVTMTEYEALNPDPVEWAYFLLALICRGQFERARRLQDFYPSLSHDEFRRARLVIALLGGSGDAAVSGRYGRDRKSIHQIPDRSDSEWLAWFSDILERCQQPDLANVLRHAPVGRSGVGEKVTFLHFKRDAGWRLRLYSGVDGLMVGLHLNGLRPNVPPLPEFRYFSHLARRLVPHSQRGPLRRIRTALSRLPVGTGN | failed |
| MNSPFAAETLLFERSRPRPEALRVIYGFPNTYSVGITSLGYQLVWAQLASRADVAVSRLFTDVQEPLPRDPELVGFSFSWELDYGNLLVLLEQLGIPIWQRDRHDCHPLVFGGGPVLTANPEPFADFFDVILLGDAEPLLDPFLTTMAQVRTAARSQRLEALAHVPGIYVPSLYHVSYSHPTGPIQRIEPIKASVPPTVTKQVHRGHTLAASTVVTPLAAWENIYMVEVVRSCPELCRFCLASYLTLPFRTPSLETLIPAIERGLAVTDRLGLLGASITQHPEFPALIEHLGQPQFDHVRVSLASVRTNTVTESLAQLLSQRGSQSLTIAIETGSERLRQVINKKLETEEILAAASHAQAGGLKGLKFYGMVGLPTETDADVAATVDLFCQLKKTAPRLRLTLGCSTFVPKAHTPFQWWGVQPVAEKRLKFLKKELAKLGIEFRPESYNDSLIQALISRGDRRLAPLLEQVRHYGTSLGSYRRAFKERQGQLPDFEAYVNANWPEETVLPWQHLQSGLPTKTLENHLKRAIALEHHHHHH | failed |
| MNSPKNSLYEEKSGHYYNAVNPNLLKHIKKEWKEVLDIGCSSGALGAAIKENGTRVSGIEAFPEAAEQAKEKLDHVVLGDIETMDMPYEEEQFDCVIFGDVLEHLFDPWAVIEKVKPYIKQNGVILASIPNVSHISVLAPLLAGNWTYTEYGLLDKTHIRFFTFNEMLRMFLKAGYSISKVDRVYVDHKMYEPLIEELYGICKKYRLGSGFMAETVVFQYIIEAEKSQL | not failed |
| MNSPTSRPLRRDPLHNALVTTNVLVVLDQLEVAAEPTRRRLVQLLTSGEQTVNNLAAHFPASRSAISQHLRVLTEAGLVTPRKDGRFRYYRLDPQGLAQLRALFDSFWIDELDRLVADATEEAASKGDS | not failed |
| MNSTAIVLLNWRSAKDTVKCVESLIAAEIRQCDIIIVDNDSQDESINVIKEHFTDVRVIESGKNGGFAYGCNVGIRAALSSGYNYVWLLNNDTIVDKTTLPNMIEEIKRNKKAIVGSIIRDIEFPWSVQAVGGGTINFLTGTGRHIKTFDDVDKLDYLLGASILVSREALESIGLLNEDFFMYWEDTEFCIRARRKGYFLKVAKQSNVYHKEGGSVNKESYAQTRMIFRSMRKFFLKESPFPLLPIAIRQLGKTFVSLLRREFRRIPYIWL | failed |
| MNSTRGVTLIQLSSALAYSHALMNQVVNPGDHVIDATVGNGHDTVYLAKLVGTTGHVDGFDIQSAAIEATTTALDKAALTHQVTLWQTGHEHIADKIAADQPIKCAVFNLGYLPGGDKQIITKPTTTLTAIKAIQERLVTNGLIILLVYAGHPGGATEAQAVLDYVTNLDQHQFQVLQYQFINQVHVPPYLLAIQKR | failed |
| MNSVGFYGKLAGRGDFVSRGLPNTFVEPWDAWLASGMRASQDELGAAWLDAYLTSPLWRFAIAPGLLGGEAVTGVVMPSIDRVGRYFPLTVACLLPANADLGGLVGGDDGWFEQVESLLLSTLEPEAEVEAFEQAVAQLPAPPCGPRIEQSLISGNLLRSEAVTPAQRLAALAQHACDGASHWWGRGSARISAGLMRYQGLPPAPAFGRFLTGEGEVIPLFPGIPG | not failed |
| MNSVVDISWAKLAAFSLILLVPLAINARYRLGIAKDASVSVVRMTLQLVLIGVYLEYLFQLNSLIINLLWLAIMLVVGASSIAGKARLPKKPLMLPLLTGLVCGLFPLLIAITAGLVRPTPLYNAQYMIPLAGMLLGNSLSSNIIALQNLFSAFEERKSEYEAAISLGAAPKYASFPFVQEALRKSLAPTLASMTTMGLVTLPGMMTGQVLGGASPLVAIKYQLVIMLAIFVMMSVSVAITLEMTLSFVQTKEGRVTVKVRPVDGMKRGQ | failed |
| MNTESVVEFLGNVPLLQKLPSSSLKKIAQVVVPKRYGKGDYVVREDQTWDGCYFILQGEAQVSGPDEEDNRSEFLLKQYDYFGVGLSGNVHSADIVAMSQLTCLVLPRDHCHLLETNSIWQSDTSLDKCSLVERILQLDPLELNIFRGITLPDAPIFGKVFGGQFVGQALAAASKTVDFLKVVHSLHSYFLLVGDIDIPIIYQVHRIRDGNNFATRRVDAVQKGNIIFILLASFQKEQQGFEHQESTMPSVPDPDTLLSLEELRESRITDPHLPRSYRNKVATRNFVPWPIEIRFCEPSNSTNQTKSPPRLNYWFRAKGRLSDDQALHRCVVAFASDLIFCGVGLNPHRRKGVKSAALSLDHAMWFHRPLRADEWLLYVIVSPTAHETRGFVTGQMFNRKGELVVSLTQEALLREARPPKPSGTSKL | failed |
| MNTGTAVITGASSGLGLQCARALLRRDASWHVVLAVRDPARGRAAMEELGEPNRCSVLEVDLASVRSVRSFVETVRTTPLPPIRALVCNAGLQVVSGIAFTDDGVEMTFGVNHLGHFALVTGILDWLARPARIVVVSSGTHDPSKHTGMPDPRYTCAADLAHPPTDQNTPAEGRRRYTTSKLCNVLFTYELDRRLDHGEQGVMVNAFDPGLMPGSGLARDYPPILRLAYRLLSPMLRVLPFVHSTRVSGEHLAALAVDPRFAGVTGQYFAGAKAIRSSAESYDRAKALDLWETSERLLAQVT | failed |
| MNTKALIGILMFLLLITWSSKGFAKTAEATVTVNIRNSPSTSSKVLGVFPKGFKAQVLSSTGGWVKISFDGVVGYVKSDYIKLTKDSSTSNAVKSSTNTRQVVSQMPMATVLKDNARVRSNMSTSSKILKTLKKGSKVYVLARERNGWIKVKTLDGTVGYMAYYLLKMSTSHTTKISSRGGYDREAQVAYNGSLADRILGFAKNLLGIRYRYGGSSPSTGFDCSGFVQYVFRNFGISLERTAADMAATDGVRISYNELRPGDLVFFDTDGGRNYINHVGIYLGGGKYIHASSARGCVTISDLTSKYGTSFMMAKRVIR | failed |
| MNTKRNRLLYATFTILVIILGLSSRKFAFALPALLNDYLGDALWALMIFTGFGFLFPKIATKKLAFISLIFCYGIEVSQLYHAEWIDSIRATTLGGLVLGYGFLWSDLVAYTIGVGIGFLFELILWKK | failed |
| MNTLECLAVAVALAMDAFAVAIATGIRLREVSPRQTFRLAFHFGLFQALMPVAGWTLGLTVRGYIEQWDHWLAFGLLLYIGVRMMREAFEETEENDDRCDPTRGLTLIMLAVATSIDALAVGLSLSVLGIDIVTPAIVIGVVCLLFTATGLHLGRMLSRAESLGRRAALAGGVVLIGIGLRILYEHGVFDTAATLARSVLG | failed |
| MNTLEIAKEVFEKEAQAILDLATNLDENFNQAVNLMLNTKGRCIVSGMGKSGHIGAKIAATLASTGTPSFFIHPGEALHGDLGMLTSEDVLIAISNSGETEEILKIIPAIKKREIPLIVMCGKKNSTLVKQGDIFLNIAVEKEACPLQLAPMSSTTATLVMGDALAAALMKVRNFKPDDFALFHPGGSLGRKLLTKVKDLMVSSNLPIVHPDTEFNDLVDVMTSGKLGLCVVLENEKLVGIITDGDLRRALKASDKPRFDFKAKEIMSINPKVVDADAMASEAEGIMLKHKIKEIIVGKEEKVVGIIQLYAIGNV | not failed |
| MNTSYSQSTLRHNQVLIWLCVLSFFSVLNEMVLNVSLPDIANEFNKLPASANWVNTAFMLTFSIGTALYGKLSDQLGIKNLLLFGIMVNGLGSIIGFVGHSFFPILILARFIQGIGAAAFPALVMVVVARYIPKENRGKAFGLIGSLVAMGEGVGPAIGGMVAHYIHWSYLLLIPTATIITVPFLIKLLKKEERIRGHIDMAGIILMSAGIVFFMLFTTSYRFSFLIISILAFFIFVQHIRKAQDPFVDPELGKNVFFVIGTLCGGLIFGTVAGFVSMVPYMMKDVHHLSTAAIGSGIIFPGTMSVIIFGYIGGLLVDRKGSLYVLTIGSALLSSGFLIAAFFIDAAPWIMTIIVIFVFGGLSFTKTVISTVVSSSLKEKEAGAGMSLLNFTSFLSEGTGIAIVGGLLSIGFLDHRLLPIDVDHSTYLYSNMLILFAGIIVICWLVILNVYKRSRRHG | not failed |
| MNTTVEKQQIITSNTEQWKMYSKLEGKEYQIHISKPKQPAPDSGYPVIYVLDGNAFFQTFHEAVKIQSVRAEKTGVSPAIIVGVGYPIEGAFSGEERCYDFTPSVISKDAPLKPDGKPWPKTGGAHNFFTFIEEELKPQIEKNFEIDKGKQTLFGHSLGGLFALHILFTNLNAFQNYFISSPSIWWNNKSVLEKEENLIIELNNAKFETGVFLTVGSLEREHMVVGANELSERLLQVNHDKLKFKFYEAEGENHASVVPTSLSKGLRFISYV | not failed |
| MNVDILKQRAKAFDYVFDAIVVTDLQGFIIDWNKGSETLYGYSKEQAIGQPVNMLHVPGDTEHITSEVISAVENQGKWTGEIRMLHKDGHIGWIESMCVPIYGENYQMVGALGINRDITKRKKELEHHHHHH | not failed |
| MNVRHISYFNQWHGALVTNMLAGVLLALALLPGAIAFSFIAGVSPTIGMLSTGLMMLVISLTGNRTLMVSAPSSGVSLVVAPLMSSHGMPAVILATLIMGIIQILMGICRINKLLDYIPTGVVIGFMNALGVLLFTSQLKNILNISNATYVIAVASFLIIWLAQRYIRFMPAPLIAIIILTICAWWLKPDIVYVHHLASLHIHVPMLSFPDAMYDMHIVGISSMYGVTMAIVAVVQTTLTARMMDAVTATKSDKNKETIGQGVANTIVALFGGYGGSALVGQSRFNATMGATSRVSTLITGAFLLISLFVFGDIIGQIPMAVLATVLITISLNTFDRRTISFIKVSPIKHGAIVVLTMLIILSTNNLAAGVVLVSLLYYLIQGFNKRKGRDI | failed |
| MNVRKFPFAMRAGVAGMLALAALLAGCGSLSGSEMSRRTDADIEVARQRQADEKAELTSPGTYLSLIRRMQEQGMYYASLAHIDAYVQRFGRTPDVLLLRADALRETDQPAAAEADYRAVVEATSALGAGTQGALLNANAWRGLGITAGRQGRFAEAVRRLQLAARGNPTDASTESDLGYALMRAGEVEQARVPLMQAAQLDAANPKIAGNLAIWLDVNDRKEAAAALTAHARLSEAARKAIDEDAARVRSAWRDRRVARDTAPQPVQRAVVANPALMPAAAAPRSSAPLAFQRGRLLDNLEAAQ | failed |
| MNVSNGDLIVEKIVANRKYHALKRQRNVLSWLLTLLMLVVYFGFIGLIAFNKAFLAVPLASGVTTRGIPIAIGVMLFAIIVTAVYVFFSNIVYDKLSRNILEDACK | failed |
